Test results taken from publication PMC6312923 (Life Science Alliance, 2018).

Test system: DDB1, Cul4A
Experiment: Co-immunoprecipitation of DDB1 / Cul4A with FLAG-tagged Cdt2 constructs
Type: cell-based, human
Conditions: anti-FLAG IP, cross-linked cells
Excerpt: Before cell lysate preparation, cells were cross-linked.
Figure 3. […] HEK293 cells were transfected with plasmids expressing the indicated Cdt2 fused to a C-terminal FLAG tag, cross-linked, and precipitated with anti-FLAG antibodies (arrows). […] The bands in the blank lanes for Cul4A blotting correspond to the cross-reacting bands to pre-stained marker. […] HEK293 cells were transfected with the indicated plasmids and treated as in A. * indicates nonspecific bands derived from IgGs. (C) A schematic drawing of the Cdt2 domain structure highlighting the C-terminal PIP box and a sequence alignment of PIP boxes in various organisms. The alanine-changed PIP box mutant of Cdt2 was shown (PIP-3A) together with Cdt1 PIP box. (D) HEK293 cells were transfected with Cdt2^WT or PIP box mutant (Cdt2^PIP-3A) C-terminally fused to a FLAG tag, treated as in B, and Cdt2 was precipitated with anti-FLAG resin.
Control or Cdt2-FLAG expressing 293 cells that were UV irradiated (50 J/m^2), or not UV irradiated, or in the middle S phase (5 h after release from aphidicolon arrest) were fixed with 0.02% formaldehyde for 10 min, lysed using 0.1% Triton X-100-containing modified cytoskeleton (mCSK) buffer (10 mM Pipes, pH 7.9, 100 mM NaCl, 300 mM sucrose, 0.1% [vol/vol] Triton X-100, 1 mM phenylmethylsulfonyl fluoride, 10 mM β-glycerophosphate, 1 mMNa3VO4, 10 mM NaF), and then sonicated. After centrifugation (120,000g, Beckman Type 45Ti rotor, for 20 min at 4°C), the supernatants were mixed with anti-FLAG antibody-conjugated magnetic beads (M8823; Sigma-Aldrich) for 1 h at 4°C to obtain immunoprecipitates. The precipitate was washed with ice-cold 0.1% Triton X-100 containing mCSK buffer and subsequently suspended in SDS sample buffer.

B1: Cdt2^PIP-3A: Cdt2 with I709, Y712, and F713 all mutated to alanine (protein, UniProt Q9NZJ0 1-730, looked up, variant I709A Y712A F713A)
Denticleless protein homolog: MLFNSVLRQPQLGVLRNGWSSQYPLQSLLTGYQCSGNDEHTSYGETGVPVPPFGCTFSSAPNMEHVLAVANEEGFVRLYNTESQSFRKKCFKEWMAHWNAVFDLAWVPGELKLVTAAGDQTAKFWDVKAGELIGTCKGHQCSLKSVAFSKFEKAVFCTGGRDGNIMVWDTRCNKKDGFYRQVNQISGAHNTSDKQTPSKPKKKQNSKGLAPSVDFQQSVTVVLFQDENTLVSAGAVDGIIKVWDLRKNYTAYRQEPIASKSFLYPGSSTRKLGYSSLILDSTGSTLFANCTDDNIYMFNMTGLKTSPVAIFNGHQNSTFYVKSSLSPDDQFLVSGSSDEAAYIWKVSTPWQPPTVLLGHSQEVTSVCWCPSDFTKIATCSDDNTLKIWRLNRGLEEKPGGDKLSTVGWASQKKKESRPGLVTVTSSQSTPAKAPRAKCNPSNSSPSSAACAPSCAGDLPLPSNTPTFSIKTSPAKARSPINRRGSVSSVSPKPPSSFKMSIRNWVTRTPSSSPPITPPASETKIMSPRKALIPVSQKSSQAEACSESRNRVKRRLDSSCLESVKQKCVKSCNCVTELDGQVENLHLDLCCLAGNQEDLSKDSLGPTKSSKIEGAGTSISEPPSPISPYASESCGTLPLPLRPCGEGSEMVGKENSSPENKNWLLAMAAKRKAENPSPRSPSSQTPNSRRQSGKKLPSPVTITPSSMRKACTAAHRKSQEDFCGPEHSTEL
modifications: FLAG tag
notes: Cdt2 with I709, Y712, and F713 all mutated to alanine
binding to DDB1 (and Cul4A): without significantly affecting interaction with Cul4A and DDB1
